Assay results published in paper PMC12442443, “Identifying interactions between TDP‐43's N‐terminal and RNA‐binding domains” (Protein Science : A Publication of the Protein Society, 2024).

Tests used:
[1] = target: TDP-43 102-260 (RRM1-RRM2) (Homo sapiens, UniProt Q13148); assay: MST; apparent Kd; NMR: 40 mM HEPES pH 6.5, 300 mM NaCl, 4 mM DTT, 25 C, 25 uM protein; EMSA: same buffer, 25 C incubation, 6.25% PAGE 0.5x TBE at 4 C; MST and HTRF buffers not in material; details: protein: recombinant; tags: His (MST: NT-647 labelled HisTDP-43; tag cleaved when needed); single strand
[2] = target: TDP-43 1-260 (NTD-RRM1-RRM2) (Homo sapiens, UniProt Q13148); assay: as above; details: protein: recombinant; tags: His (MST: NT-647 labelled HisTDP-43; tag cleaved when needed); single strand
[3] = target: TDP-43 1-102 (NTD) (Homo sapiens, UniProt Q13148); assay: HTRF; ligand (UG)6 per legend; Methods heading names biotin (UG)4; NMR: 40 mM HEPES pH 6.5, 300 mM NaCl, 4 mM DTT, 25 C, 25 uM protein; EMSA: same buffer, 25 C incubation, 6.25% PAGE 0.5x TBE at 4 C; MST and HTRF buffers not in material; details: protein: recombinant; tags: His; single strand
Sequence of TDP-43 1-102 (NTD) (Q13148 1-102): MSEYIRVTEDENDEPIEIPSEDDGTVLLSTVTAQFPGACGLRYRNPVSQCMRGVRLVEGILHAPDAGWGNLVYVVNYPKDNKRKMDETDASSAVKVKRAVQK

Sequence of TDP-43 1-260 (NTD-RRM1-RRM2) (Q13148 1-260): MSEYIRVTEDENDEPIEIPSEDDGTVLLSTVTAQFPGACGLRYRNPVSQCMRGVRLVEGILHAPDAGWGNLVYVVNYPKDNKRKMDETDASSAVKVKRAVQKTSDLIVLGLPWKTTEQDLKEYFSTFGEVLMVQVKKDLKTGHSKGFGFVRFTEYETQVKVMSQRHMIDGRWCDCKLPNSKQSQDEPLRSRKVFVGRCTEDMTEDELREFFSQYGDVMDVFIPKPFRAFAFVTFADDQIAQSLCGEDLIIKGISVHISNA
Sequence of TDP-43 102-260 (RRM1-RRM2) (Q13148 102-260): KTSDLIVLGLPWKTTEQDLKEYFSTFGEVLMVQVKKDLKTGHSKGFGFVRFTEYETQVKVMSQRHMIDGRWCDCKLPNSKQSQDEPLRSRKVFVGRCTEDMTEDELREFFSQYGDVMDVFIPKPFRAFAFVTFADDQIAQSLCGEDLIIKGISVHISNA

B1: (UG)6 (ssRNA)
RNA: UGUGUGUGUGUG
Kd [1]: 39.8 nM | Kd [2]: 28.4 nM

B2: (UG)6 HTRF ligand (ssRNA)
RNA: UGUGUGUGUGUG
binding result [3]: no binding

B3: (UG)4 (ssRNA)
RNA: UGUGUGUG
Kd [2]: 246 nM
